Reference: the supplement of paper PMC9170038

Test system: K4 kissing-loop RNA reporter
Assay: apparent KD of K4 kissing-loop reporter; higher = weaker reporter binding
Conditions: Eterna round: R107
Method: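 RNA-MaP round R107: designed RNA switches with theophylline, tryptophan, arginine or FMN aptamers are transcribed on-chip within common flanks. They are titrated with a labelled K4 kissing-loop RNA reporter in RNA-MaP buffer (100 mM Tris pH 7.5, 80 mM KCl, 4 mM MgCl2), without ligand or with the indicated ligand. Median apparent KD per design.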

[1] = input ligand: theophylline 20 uM
[2] = input ligand: tryptophan 2.4 mM
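Note: bound reporter read as fluorescence of individual clusters on recovered sequencing chips by microscopy, with normalized cluster intensities fitted with a binding model.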

| Sequence | apparent KD of K4 kissing-loop reporter (input ligand: FMN 200 uM) [nM] | apparent KD of K4 kissing-loop reporter (input ligand: arginine 13.2 mM) [nM] | apparent KD of K4 kissing-loop reporter (input ligand: none) [nM] | apparent KD of K4 kissing-loop reporter [1] [nM] | apparent KD of K4 kissing-loop reporter [2] [nM] |
| --- | --- | --- | --- | --- | --- |
| UUAGAGAUCUCAGGAUAUCAGUGAUGUUGGUGUUAAGAUCUGAGAUAGAAUUCUAUCUCAGAUCAAUGAGAAGGGAGAUCUCAUU [AK3 Exc FMN B] | 296 | 132 | 167 | 161 | 152 |
| AGACCACAAAGUGGUCAGUGUUCGCUGCAGCGAGGACCGGUACGGCCGCCACUCGCGAGUGAUGUUCGCGAGAGCAGCGAACACA [Omei KL Tryp A Exc A v6] | 90.9 | 83.4 | 82.1 | 87.3 | 116 |
| CGUAAGGAUUGACGACUGCAGAGCAAAAUAAAGGAUAUCGCAGCGUCGAGAAGGUUAUCGUGCGCCAGUGAUGUUGGCGGUAGUC [theeternabot_sameState_KL_FMN_A_22] | 84.1 | 135 | 108 | 181 | 87 |
| GGUGACUACCAGAGGUGAUGUAUAGUAUCGCGAGGACCGGUACGGCCGCCACUCGUGAAGAGAAAGGAGUGAUGUUCCGUAAUGG [Kazoo C8] | 396 | 315 | 323 | 627 | 160 |
| GCCGUAGAUUGAAGGAGCGUUCUUCAGCAAACUUGCAGUGAUGUUGCAUUAAACAUGUAAGAACAGGUAGGUCGCAAUCUACGGC | 145 | 138 | 155 | 129 | 121 |
| UGCGCUGUGUACUGAAAUGUUAUGCGGGAUACCAGAGUCUUUUUAUUCCCUUGGCAGCUUGAGUGAUGUUUGAUGCCGUUCUUGU [po,,mmullin] | 490 | 256 | 548 | 577 | 418 |
| UGACGUUUGGGAAGGAGCGGAAUGUAAUACGGAGCGCGUGGAGAUGCAGUGAUGUUGCAGAUCCAGGUAGGUCGCCCAAGGGACG [Zati] | 95.3 | 83.5 | 80.9 | 79.3 | 79.6 |
| AAUAAGGAGUGAUGUUCCAAGUGAUGUUAACGAGGACCGGUACGGCCGCCACUCGAUACGGCCGGAAAGUAAGAUAAACUAAAAU [Same State - Tryptophan A (Freestyle 2)] | 61 | 42.8 | 52.3 | 45.5 | 47.2 |
| AACGUAGCUACUGAUACCAGACUUUUUCUUGUAUAUUAGUCAAGUGAUGUUUGACUUUUAGUCCCUUGGCAGCAGUUGCUACGAA [JR_Nu_SSTheophyB_Sub028] | 89.2 | 84.3 | 91.4 | 82.6 | 98.3 |
| UUGGCAGUGAUGUUGCCAGAGUUCACCGAAGGAGCGGGUGAAAACCCAGGUAGGUCGCGGUAGCGGAGUGAUUCUCCGCGAGGGC [Same State Arginine A GF 22] | 90.5 | 91 | 86.2 | 93.7 | 91.4 |
| GGCCGGAAGGCGAGCGCUCCCACUCCGGAAGGAGCGCCCGCAAGGGCAGGUAGGUCGCCGGAGUGAUGUUCCGGUGGAGGGCUCG [#2 Exclusion - Arginine A Attempt #20 (Inspired by Omei)] | 185 | 308 | 379 | 8.89 | 136 |
| GCGGGCCAGACGGCCGCCACUCCGGGCAGUGAUGUUGCGAAAAUUCUACUAGAGUGAUGUUCUACGAGGACCGGGUCGGAACGCG [Exclusion Tryptophan B Gf 12] | 370 | 476 | 538 | 495 | 257 |
| AGGAUCCGUCGACAAAAGUCGACAUAAACCAAGGAUAUGACGAAAGUCAGAAGGUGGUCAUAAGGCCAGUGAUGUUGGUGGAUCC [FmnA 12 #SwitchBubble #K4Late] | 927 | 431 | 576 | 796 | 349 |
| GGAUAGGAUAGAGGAUAUGGUAGUGAUGUUACCAAACUGGUUAAACAUGUCAGAAAACUGGCAUGACCAGAAGGUUGUCCUAUCG [FmnBX 27 U9+U75] | 80.5 | 57.1 | 70.5 | 66.9 | 61.5 |
| GUCUCAAAAGAGGCAAGCACUCACGAGGACAAGGAUAUCAUCUCAAUGAGAAGGUGUCCUCGUCCCUAGUGAUGUUAGGGAGUGC [Omei KL FMN A SS E v2] | 211 | 334 | 368 | 478 | 468 |
| ACCUACCAUUAGUGAUGUUAAUGGACGGAAGGAGCGCAGAUAUCUGCAGGUAGGUCGCCGAAGGCUAGACAUUGUCUAGCCAUUU [AK1.3 SS Arginine A] | 192 | 161 | 217 | 155 | 180 |
| CUCGAGUGAUGUUCGAUUAUUUAUACAGAUACCAGUGAAUUUUAACACCCUUGGCAGCUGGUAGUAUCUUUGUAAUUUUAACUAG [JR_ExcTheophyA_Sub003] | 133 | 181 | 147 | 176 | 111 |
| UGAUUGGCGAAAGUAGUGAUGUUACGAACAUAGGAUAUUAGAGGAAUAAGAAGGAUGAAUGAGAAAGGAAUAAAUUGUUGGUUGG [#08 K4 FMN A Same State] | 139 | 64 | 165 | 193 | 102 |
| UGUUUUUACUGAAGGAGCGGCAAUUGAUACGUAGAUAUAGUGAUGUUAUAUAAGAUAGAGAGCCAGGUAGGUCGCAGAAUGAAUC [ExArgB.aD] | 209 | 188 | 190 | 242 | 156 |
| CCUAUCUCAUACGAUACCAGUCUAUUGUUACGAGUGAUGUUCGAAUAUUUGCCAUUCAAUGACCCUUGGCAGCGUAUGGGAUAGG [Ex Theophylline B K4 10] | 502 | 519 | 525 | 548 | 486 |
| UUUGUAUCGGGAAGGAGCGUGAAUGAUAAUGAAUAUAGUGAUGUUAUAUAUAAGAACGAAUCACAGGUAGGUCGCCCGGAUGACU [SSArgB.O] | 747 | 555 | 515 | 729 | 364 |
